Patent US11278600B2, “Human alpha-galactosidase variants” (Codexis, Inc., priority 2014, dated 2022)

B1: 647 (protein)
chain: LDNGLARTPTMGWLHWERFMCNLDCQEEPDSCISEKLFMEMAERMVSEGWKDAGYEYLCIDDCWMAPQRDSEGRLQADPQRFPHGIRQLANYVHSIGLKLGIYADVGNKTCAGFPGSFGYYDIDAQTFADWGVDLLKFDGCYCDSLENLADGYKHMSLALNRTGRSIVYSCEWPLYMWPFQKPNYTEIRQYCNHWRNFADIDDSWASIKSILDWTSRNQERIVDVAGPGGWNDPDMLVIGNFGLSWNQQVTQMALWAIMAAPLFMSNDLRHISPQAKALLQDKDVIAINQDPLGKQGYQLRKGDNFEVWERPLSGLAWAVAIINRQEIGGPRSYTIAVASLGKGVACNPGCFITQLLPVKRQLGFYNWSSRLKSHINPTGTVLLQLENTMQMSLKDLL
modifications: Synthetic Polypeptide sequence of Variant No. 346 of mature Human GLA
B2: 642 (protein)
chain: LDNGLARTPPMGWLHWERFMCNLDCQEEPDSCISEKLFMEMADRMVTEGWKDAGYEYLCIDDCWMAPQRDSEGRLQADPQRFPHGIRQLANHVHSKGLKLGIYADVGNKTCAGFPGSFGYYDIDAQTFADWGVDLLKFDGCYCDSLENLADGYKHMSLALNRTGRPIVYSCEWPLYMWPFQKPNYTEIRQYCNHWRNFADIDDSWASIKSILDWTSRNQERIVDVAGPGGWNDPDMLVIGNFGLSWDQQVTQMALWAIMAGPLFMSNDLRAISPQAKALLQDKDVIAINQDPLGKQGYQLRKGDLFEVWERPLSGDAWAVAIINRQEIGGPRSYTIPVASLGKGVACNPACFITQLLPVKRQLGFYNATSRLKSHINPTGTVLLQLENTMQTSLKDLL
modifications: Synthetic Polypeptide sequence of Variant No. 642 of mature Human GLA
B3: 649 (protein)
chain: LDNGLARTPPMGWLHWERFMCNLDCQEEPDSCISEKLFEEMAERMVTEGWKDAGYEYLCIDDCWMAPQRDSEGRLQADPQRFPHGIRQLANHVHSKGLKLGIYADVGNKTCAGFPGSFGYYDIDAQTFADWGVDLLKFDGCYCDSLENLADGYKHMSLALNRTGRPIVYSCEWPLYMWPFQKPNYTEIRQYCNHWRNFADIDDSWASIKSILDWTSRNQERIVDVAGPGGWNDPDMLVIGNFGLSPDQQVTQMALWAIMAAPLFMSNDLRAISPQAKALLQDKDVIAINQDPLGKQGYQLRKGDNFEVWERPLSGDAWAVAIINRQEIGGPRSYTIPVASLGKGVACNPACFITQLLPVKRQLGFYNWTSRLKSHINPTGTVLLQLENTMQTSLKDLL
modifications: Synthetic Polypeptide sequence of Variant No. 649 of mature Human GLA
B4: 646 (protein)
chain: LDNGLARTPTMGWLHWERFMCNLDCQEEPDSCISEKLFMEMAERMVTEGWKDAGYEYLCIDDCWMAPQRDSEGRLQADPQRFPHGIRQLANHVHSKGLKLGIYADVGNKTCACFPGSFGYYDIDAQTFADWGVDLLKFDGCYCDSLENLADGYKHMSLALNRTGRPIVYSCEWPLYMWPFQKPNYTEIRQYCNHWRNFADIDDSWASIKSILDWTSRNQERIVDVAGPGGWNDPDMLVIGNFGLSWDQQVTQMALWAIMAAPLFMSNDLRAISPQAKALLQDKDVIAINQDPLGKQGYQLRKGDNFEVWERPLSGDAWAVAIINRQEIGGPRSYTIPVASLGKGVACNPACFITQLLPVKRQLGFYNWTSRLKSHINPTGTVLLQLENTMQTSLKDLL
modifications: Synthetic Polypeptide sequence of Variant No. 646 of mature Human GLA
B5: 648 (protein)
chain: LDNGLARTPPMGWLHWERFMCNLDCQEEPDSCISEKLFEEMAERMVTEGWKDAGYEYLCIDDCWMAPQRDSEGRLQADPQRFPHGIRQLANHVHSKGLKLGIYADVGNKTCAGFPGSFGYYDIDAQTFADWGVDLLKFDGCYCDSLENLADGYKHMSLALNRTGRPIVYSCEWPLYMWPFQKPNYTEIRQYCNHWRNFADIDDSWASIKSILDWTSRNQERIVDVAGPGGWNDPDMLVIGNFGLSWDQQVTQMALWAIMAGPLFMSNDLRAISPQAKALLQDKDVIAINQDPLGKQGYQLRKGDNFEVWERPLSGDAWAVAIINRQEIGGPRSYTIPVASLGKGVACNPACFITQLLPVKRQLGFYNATSRLKSHINPTGTVLLQLENTMQTSLKDLL
modifications: Synthetic Polypeptide sequence of Variant No. 648
B6: 644 (protein)
chain: LDNGLARTPTMGWLHWERFMCNLDCQEEPDSCISEKLFMEMAERMVTEGWKDAGYEYLCIDDCWMAPQRDSEGRLQADPQRFPHGIRQLANHVHSKGLKLGIYADVGNKTCAGFPGSFGYYDIDAQTFADWGVDLLKFDGCYCDSLENLADGYKHMSLALNRTGRPIVYSCEWPLYMWPFQKPNYTEIRQYCNHWRNFADIDDSWASIKSILDWTSRNQERIVDVAGPGGWNDPDMPVIGNFGLSWDQQVTQMALWAIMAAPLFMSNDLRAISPQAKALLQDKDVIAINQDPLGKQGYQLRKGDNFEVWERPLSGDAWAVAIINRQEIGGPRSYTIPVASLGKGVACNPACFITQLLPVKRQLGFYNWTSRLKSHINPTGTVLLQLENTMQTSLKDLL
modifications: Synthetic Polypeptide sequence of Variant No. 644 of mature Human GLA
B7: 643 (protein)
chain: LDNGLARTPPMGWLHWERFMCNLDCQEEPDSCISEKLFMEMAERMVTEGWKDAGYEYLCIDDCWMAPQRDSEGRLQADPQRFPHGIRQLANHVHSKGLKLGIYADVGNKTCAGFPGSFGYYDIDAQTFADWGVDLLKFDGCYCDSLENLADGYKHMSLALNRTGRPIVYSCEWPLYMWPFQKPNYTEIRQYCNHWRNFADIDDSWASIKSILDWTSRNQERIVDVAGPGGWNDPDMLVIGNFGLSWDQQVTQMALWAIMAAPLFMSNDLRAISPQAKALLQDKDVIAINQDPLGKQGYQLRKGDNFEVWERPLSGDAWAVAIINSQEIGGPRSYTIPVASLGKGVACNPACFITQLLPVKRQLGFYNWTSRLKSHINPTGTVLLQLENTMQTSLKDLL
modifications: Synthetic Polypeptide sequence of Variant No. 643 of mature Human GLA
B8: 645 (protein)
chain: LDNGLARTPTMGWLHWERFMCNLDCQEEPDSCISEKLFMEMAERMVTEGWKDAGYEYLCIDDCWMAPQRDSEGRLQADPQRFPHGIRQLANHVHSKGLKLGIYADVGNKTCAGFPGSFGYYDIDAQTFADWGVDLLKFDGCYCDSLENLADGYKHMSLALNRTGRPIVYSCEWSLYMWPFQKPNYTEIRQYCNHWRNFADIDDSWASIKSILDWTSRNQERIVDVAGPGGWNDPDMLVIGNFGLSWDQQVTQMALWAIMAAPLFMSNDLRAISPQAKALLQDKDVIAINQDPLGKQGYQLRKGDNFEVWERPLSGDAWAVAIINRQEIGGPRSYTIPVASLGKGVACNPACFITQLLPVKRQLGFYNWTSRLKSHINPTGTVLLQLENTMQTSLKDLL
modifications: Synthetic Polypeptide sequence of Variant No. 645 of mature Human GLA

Assays:
Assay type in all cases: biochemical
[1] = HTP-analysis of yeast culture supernatants, no challenge (MUGal hydrolysis); conditions: activity of the variant/activity of Rd7BB (SEQ ID NO: 44)
Procedure, shortened: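 Activity read as 4-methylumbelliferyl α-D-galactopyranoside hydrolysis: fluorescence (355/448 nm) after sodium carbonate stop, following 30-180 min at 37° C with 2 mM MUGal stock at pH 4.6–4.8. Enzyme source is unchallenged culture supernatant of INVSc1 yeast expressing GLA variants, grown 66-84 h at 30° C.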

[2] = HTP-analysis of supernatants pretreated with acid (MUGal hydrolysis); conditions: activity of the variant/activity of Rd7BB (SEQ ID NO: 44); challenge at pH 3.5
Procedure, shortened: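 GLA variants were secreted from INVSc1 yeast grown 66-84 h at 30° C. in SD-Ura with 2% glucose; supernatants were mixed with McIlvaine buffer pH 3.3-4.3 and held at 37° C. for 1-3 h. Residual activity on MUGal at pH 4.8 was then measured by fluorescence.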

[3] = HTP-analysis of supernatants pretreated with base (MUGal hydrolysis); conditions: activity of the variant/activity of Rd7BB (SEQ ID NO: 44); challenge at pH 7.5
Procedure, shortened: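 GLA variants were secreted by transformed INVSc1 yeast grown 66-84 h at 30° C. Supernatants were exposed to neutral-to-basic buffers (pH 7.0-9.7) at 37° C for 1-18 h, then assayed with MUGal in acidic citrate/McIlvaine buffer, with fluorescence read after quenching.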

| Molecule | Relative Activity of GLA Variants After No Challenge (NC) [1] | Relative Activity of GLA Variants After Challenge at pH 3.5 [2] | Relative Activity of GLA Variants After Challenge at pH 7.5 [3] |
| --- | --- | --- | --- |
| B1 | − (<0.5 relative activity to Rd7BB (SEQ ID NO: 44)) | − (<0.5 relative activity to Rd7BB (SEQ ID NO: 44)) | − (<0.5 relative activity to Rd7BB (SEQ ID NO: 44)) |
| B2 | + (>0.5 to 1.5 relative activity over Rd7BB (SEQ ID NO: 44)) | + (>0.5 to 1.5 relative activity over Rd7BB (SEQ ID NO: 44)) | + (>0.5 to 1.5 relative activity over Rd7BB (SEQ ID NO: 44)) |
| B3 | + (>0.5 to 1.5 relative activity over Rd7BB (SEQ ID NO: 44)) | + (>0.5 to 1.5 relative activity over Rd7BB (SEQ ID NO: 44)) | + (>0.5 to 1.5 relative activity over Rd7BB (SEQ ID NO: 44)) |
| B4 | − (<0.5 relative activity to Rd7BB (SEQ ID NO: 44)) | − (<0.5 relative activity to Rd7BB (SEQ ID NO: 44)) | − (<0.5 relative activity to Rd7BB (SEQ ID NO: 44)) |
| B5 | + (>0.5 to 1.5 relative activity over Rd7BB (SEQ ID NO: 44)) | + (>0.5 to 1.5 relative activity over Rd7BB (SEQ ID NO: 44)) | + (>0.5 to 1.5 relative activity over Rd7BB (SEQ ID NO: 44)) |
| B6 | − (<0.5 relative activity to Rd7BB (SEQ ID NO: 44)) | − (<0.5 relative activity to Rd7BB (SEQ ID NO: 44)) | − (<0.5 relative activity to Rd7BB (SEQ ID NO: 44)) |
| B7 | + (>0.5 to 1.5 relative activity over Rd7BB (SEQ ID NO: 44)) | − (<0.5 relative activity to Rd7BB (SEQ ID NO: 44)) | + (>0.5 to 1.5 relative activity over Rd7BB (SEQ ID NO: 44)) |
| B8 | + (>0.5 to 1.5 relative activity over Rd7BB (SEQ ID NO: 44)) | + (>0.5 to 1.5 relative activity over Rd7BB (SEQ ID NO: 44)) | − (<0.5 relative activity to Rd7BB (SEQ ID NO: 44)) |
